The results in this text go back to US20240002498A1 (TENEOBIO, published 2024).

For assay [1], the target named is human Folate Receptor Alpha (FOLR1) on cells (human) (UniProt P15328). Put plainly: cell-based or functional assay.
For assay [2] the target is unchanged. In words: saturation binding on IGROV-1 cells, bound against free antibody (Scatchard analysis per paragraph 239).

Chain of human Folate Receptor Alpha (FOLR1) on cells (human) (P15328 25-234): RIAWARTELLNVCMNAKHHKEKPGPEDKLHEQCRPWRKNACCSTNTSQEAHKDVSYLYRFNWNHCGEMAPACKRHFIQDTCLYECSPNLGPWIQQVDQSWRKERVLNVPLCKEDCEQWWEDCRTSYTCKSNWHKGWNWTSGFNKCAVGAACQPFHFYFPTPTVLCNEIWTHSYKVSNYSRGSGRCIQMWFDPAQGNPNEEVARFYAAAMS

In assay [1], “TNB-928B, fully human bispecific antibody that binds to FOLR1 (FRα) and CD3” showed an EC50 of ex vivo tumor cell lysis (dissociated ovarian tumor sample) of 0.0452 nM and a maximum tumor cell lysis (IGROV-1 cells with human pan T-cells, 48 hours) of 75%. In assay [2], the EC50 (read off the curve) – broadly, the concentration giving half of the maximal effect – is 6 nM.
